Patent publication US20240101645A1 (HENRY M JACKSON FOUNDATION FOR THE ADVANCEMENT OF MILITARY …, published 2024)

B1: COV_2056 (SEQ ID NO:792/797) (antibody, V domains shown)
VH: EVQLVESGGGVVQPGRSLRLSCAASGFTFSIYGMHWVRQAPGKGLEWVALISYDGTNKYYADSVKGRFSISRDDSKNTLYLQMNSLRPEDTAVYYCAKVLMMGDSSGFSLGDAFDIWGQGTMVTVSS
VL: DIQMTQSPSSVSASVGDRVTITCRASQGISNWLAWYQQKPGKAPKLLIYAASSLQSGVPSRFSGSVSGTDFTLTISSLQPEDFATYYCQQANSFPLTFGGGTKVDIKR
B2: COV_2172 (SEQ ID NO:872/877) (antibody, V domains shown)
VH: EVQLVESGGGVVQPGRSLRLSCAPSGFTFSTYAMHWVRQAPGKGLEWVAVISYDGSIKYYADSVKGRFTISRDNTMNTVFLQMNSLRAEDTAVYFCAKGGERWELFTSFDYWGQGTQVTVSS
VL: QSALTQPRSVSGSPGQSVTISCTGTSSDVGGYNYVSWYQQHPGKAPKLMIYDVSKRPSGVPDRFSGSKSGNTASLTISGLQAEDEADYYCCSYAGSYTFVFGGGTKLTVLG
B3: COV_2077 (antibody, V domains shown)
VH: QVQLQESGPGLVKPSETLSLTCTVSGGSISSYSWSWIRQPPGKGLEWIGYIYYSGSTNYNPSLKSRVTISVDTSKNQFSLKLSSVTAADTAVYYCARESMGRYSLELRQPESAFDYWGRGTLVTVSS
VL: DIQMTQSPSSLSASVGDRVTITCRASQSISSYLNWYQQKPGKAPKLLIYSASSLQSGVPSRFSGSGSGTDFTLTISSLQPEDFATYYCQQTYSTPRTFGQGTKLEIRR
notes: human IgG1
B4: COV_1166 (antibody, V domains shown)
VH: EVQLVESGGGLVQPGGSLRLSCAVSGFTFRSFWMSWVRQTPGKGLEWVANIKEDGSEKYYVDSVKGRFTISRDNAKNSLYLQMNSLRAEDTAVYYCAREGRWELLGFAFDIWGQGTMVTVSS
VL: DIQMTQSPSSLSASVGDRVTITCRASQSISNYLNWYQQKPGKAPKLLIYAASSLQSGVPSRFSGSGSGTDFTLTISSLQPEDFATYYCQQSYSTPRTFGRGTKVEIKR
notes: human IgG1
B5: COV_2048 (antibody, V domains shown)
VH: QVQLQESGPGLVKPSETLSLTCTVSGGSISNTSYYWGWIRQPPGKGLEWIGSIYRSGSTYYNPSLKSRVTISIDTSKNQFTLKLSSVTAADTAVYYCARDYYGDYSAKPMEYWGQGTLVTVSS
VL: QSALTQPRSVSGSPGQSVTISCTGTSSDVGGYNYVSWYQQHPGKAPKLLIYDVSKRPSGVPDRFSGSKSGNTASLTISGLQAEDEADYYCCSYAGSYVVFGGGAKLTVLG
notes: human IgG1
B6: COV_1172 (antibody, V domains shown)
VH: QVQLQESGPGLVKPSETLSLTCTVSGGSIRSYYWSWIRQPPGKGLEWIGYIYYSGSTNYSPSLKSRVTISVDTSKNQFSLKLNSVTAADTAVYYCARRGLGYCSGDSCSNAFDIWGQGTMVTVSS
VL: DIQMTQSPSSLSASVGDRVTITCRASQSISSYLNWYQQKPGRAPELLIYDASSLQSGVPSGFSGSGSGTDFTLTISSLQPEDFATYYCQQSYSTPFTFGPGTKVDIKR
notes: human IgG1
B7: COV_2008 (antibody, V domains shown)
VH: QVRVVQSGAEVKNPGASVKVSCKVSGYTLTELSIHWVRQAPGNGLEWMGGFDPEDGETIYAQKFQGRVTMTEDTSTDTAYMELSSLRSDDTAVYYCATAGAITGTPRNFYYYYGMDVWGQGTTVTVSS
VL: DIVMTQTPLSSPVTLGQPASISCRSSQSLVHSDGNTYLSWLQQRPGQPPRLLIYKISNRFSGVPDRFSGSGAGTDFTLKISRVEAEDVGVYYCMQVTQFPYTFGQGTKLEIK
notes: human IgG1
B8: COV_2143 (antibody, V domains shown)
VH: EVQLVESGGGVVQPGRSLRLSCAASGFTFNSFAMLWVRQAPGKGLEWVALFSYDGSNKYYADSVKGRFTISRDNSKNTLYLQMNNLRAVDTAVYYCARASPYDINGYYLHRIAFDIWGQGTMVTVSS
VL: QSVLMQPPSVSGAPGQRVTISCTGSSSNIGAGYDVHWYQQLPGTAPKLLMYGNSNRPSGVPDRFSGSKSGTSASLAITGLQAEDEADYYCQSYDSGLSGWVFGGGTKLTVLG
notes: human IgG1
B9: COV_1170 (antibody, V domains shown)
VH: QVQLVESGGGVVQPGRSLRLSCAASGFTFSTYAMHWVRQAPGKGLEWVALISYDGSNKYYADSVKGRFTISRDNSKNTLDLQMNSLRAEDTAVYYCARSLGGYRTGFDYWGQGTLVTVSS
VL: DIQLTQSPSFLSASVGDRVTITCRASQGISSYLAWYQQKPGKAPKLLIYAASTLQSGVPSRFSGSGSGTEFTLTISSLQPEDFATYYCQQLNSYPPFTFGPGTKVDIKR
notes: human IgG1
B10: COV_2093 (antibody, V domains shown)
VH: EVQLVESGGGLVQPGGSLRLSCAASGFMFNRFWMSWVRQAPGKGLEWVTNIKQDGSEKNYVDSVKGRFTISRDNAKNSLYLQMNSLRAEDTAVYYCARDGLYYDFRSPSPFYGMDVWGQGTTVTVSS
VL: DIQMTQSPSSLSASVGDRVTITCRASQSISSYLNWYQHKSGKAPKLLIYAASRLQSGVPSRFSGSGSGTDFTLTIVSLQPEDLATYYCQQSYSTPRTFGGGTKVEIKR
notes: human IgG1
B11: COV_1151 (antibody, V domains shown)
VH: QVQVQQWGAGLLKPSETLSLTCAVYGGSFNNYYWSWIRQPPGKGLEWIGEINHSGSTNYNPSLMSRVTISVDTSKNQFSLKLTSVTAADTAVYFCARGLPVTTFFSSYYGMDVWGQGTTVTVSS
VL: EIVLTQSPGTLSLSPGERATLSCRASQSVSRTYLAWYQQKPGQAPRLLIYGASSRATGIPDRFSGSGSGTDFTLTISRLEPEDFAVYYCQHYGSSPWTFGQGTKVEIRR
notes: human IgG1

Experiments:
[1] = molecular target: T1, HCoV-OC43 spike antigens (bead panel) (HCoV-OC43, UniProt P36334 14-1297); test: multiplex bead assay
T1 sequence: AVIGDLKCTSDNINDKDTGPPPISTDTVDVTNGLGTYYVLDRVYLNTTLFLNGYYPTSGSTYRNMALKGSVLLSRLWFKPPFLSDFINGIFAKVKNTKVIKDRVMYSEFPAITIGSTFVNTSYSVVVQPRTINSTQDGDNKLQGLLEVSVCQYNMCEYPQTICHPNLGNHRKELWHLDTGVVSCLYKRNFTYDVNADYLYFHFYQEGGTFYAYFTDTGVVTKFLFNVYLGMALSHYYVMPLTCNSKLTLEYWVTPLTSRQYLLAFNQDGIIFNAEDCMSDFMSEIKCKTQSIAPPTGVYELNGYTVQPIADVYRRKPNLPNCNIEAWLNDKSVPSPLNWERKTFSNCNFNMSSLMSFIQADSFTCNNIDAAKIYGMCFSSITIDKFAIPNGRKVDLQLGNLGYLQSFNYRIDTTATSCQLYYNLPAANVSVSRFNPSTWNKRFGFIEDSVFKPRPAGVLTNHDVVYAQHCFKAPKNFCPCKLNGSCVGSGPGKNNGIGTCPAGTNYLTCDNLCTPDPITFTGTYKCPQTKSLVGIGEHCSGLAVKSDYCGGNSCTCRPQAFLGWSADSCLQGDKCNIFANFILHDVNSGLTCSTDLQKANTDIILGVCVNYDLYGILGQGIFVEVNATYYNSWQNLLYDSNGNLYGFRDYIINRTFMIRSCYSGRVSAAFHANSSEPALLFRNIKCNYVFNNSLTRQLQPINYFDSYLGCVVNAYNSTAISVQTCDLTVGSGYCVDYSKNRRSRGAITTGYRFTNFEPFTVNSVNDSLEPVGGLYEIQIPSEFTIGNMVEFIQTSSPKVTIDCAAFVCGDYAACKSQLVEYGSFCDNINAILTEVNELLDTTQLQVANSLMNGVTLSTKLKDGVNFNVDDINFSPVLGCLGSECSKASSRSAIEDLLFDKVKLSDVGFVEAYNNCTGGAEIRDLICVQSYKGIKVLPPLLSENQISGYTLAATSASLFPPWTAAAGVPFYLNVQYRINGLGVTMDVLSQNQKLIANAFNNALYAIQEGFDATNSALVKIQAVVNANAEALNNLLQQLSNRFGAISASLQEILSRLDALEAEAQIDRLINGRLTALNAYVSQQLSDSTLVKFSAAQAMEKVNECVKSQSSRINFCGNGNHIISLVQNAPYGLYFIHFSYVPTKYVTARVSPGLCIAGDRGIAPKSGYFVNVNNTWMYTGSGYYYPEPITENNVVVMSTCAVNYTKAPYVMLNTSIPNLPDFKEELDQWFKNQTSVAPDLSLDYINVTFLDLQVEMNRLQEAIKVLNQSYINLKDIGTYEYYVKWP

[2] = molecular target: T2, HCoV-229E spike antigens (bead panel) (HCoV-229E, UniProt P15423 16-1115); test: multiplex bead assay
T2 sequence: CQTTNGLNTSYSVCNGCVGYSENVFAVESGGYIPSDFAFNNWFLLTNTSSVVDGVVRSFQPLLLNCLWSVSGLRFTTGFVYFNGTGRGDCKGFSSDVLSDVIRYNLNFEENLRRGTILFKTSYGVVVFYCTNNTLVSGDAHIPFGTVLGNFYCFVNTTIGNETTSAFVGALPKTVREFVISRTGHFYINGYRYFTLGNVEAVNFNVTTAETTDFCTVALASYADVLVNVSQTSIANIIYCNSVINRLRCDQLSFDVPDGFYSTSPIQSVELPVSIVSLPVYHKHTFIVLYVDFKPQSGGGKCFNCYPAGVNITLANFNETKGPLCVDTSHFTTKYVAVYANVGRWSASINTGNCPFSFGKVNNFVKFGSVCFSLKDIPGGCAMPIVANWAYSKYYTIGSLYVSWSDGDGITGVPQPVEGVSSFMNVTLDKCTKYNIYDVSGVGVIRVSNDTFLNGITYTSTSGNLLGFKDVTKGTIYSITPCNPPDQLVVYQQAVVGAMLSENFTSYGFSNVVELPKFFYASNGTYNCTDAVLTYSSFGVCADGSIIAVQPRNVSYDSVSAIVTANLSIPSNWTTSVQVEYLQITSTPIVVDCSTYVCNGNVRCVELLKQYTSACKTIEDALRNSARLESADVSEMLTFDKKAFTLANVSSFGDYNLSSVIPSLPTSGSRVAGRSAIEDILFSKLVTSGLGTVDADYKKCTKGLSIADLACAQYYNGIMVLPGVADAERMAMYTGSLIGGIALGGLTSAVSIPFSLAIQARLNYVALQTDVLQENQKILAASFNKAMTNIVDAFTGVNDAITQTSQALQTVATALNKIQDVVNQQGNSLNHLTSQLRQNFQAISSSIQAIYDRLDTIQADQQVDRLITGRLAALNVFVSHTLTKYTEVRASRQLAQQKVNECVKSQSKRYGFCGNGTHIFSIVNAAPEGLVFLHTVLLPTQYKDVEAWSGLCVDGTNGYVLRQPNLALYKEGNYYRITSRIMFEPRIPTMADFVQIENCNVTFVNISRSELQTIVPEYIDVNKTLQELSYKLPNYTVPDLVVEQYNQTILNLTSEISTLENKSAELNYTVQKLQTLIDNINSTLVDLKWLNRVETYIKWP

[3] = molecular target: SARS-CoV-2 S on pseudovirions (Wuhan Hu-1 / IL1/2020, last 18 amino acids removed) (SARS-CoV-2, UniProt P0DTC2 14-1273); test: cell-based or functional assay

Row | Binder | binding result [1] | binding result [2] | Mean IC50, pSV neutralization [3] | Mean IC80, pSV neutralization [3]
1 | B1 | no binding | no binding | 7.46 µg/ml | ≥ 25 µg/ml
2 | B2 | no binding | no binding | 3.99 µg/ml | ≥ 25 µg/ml
3 | B3 | no binding | no binding | ≥ 25 µg/ml | ≥ 25 µg/ml
4 | B4 | no binding | no binding | ≥ 25 µg/ml | ≥ 25 µg/ml
5 | B5 | no binding | no binding | 20.3 µg/ml | ≥ 25 µg/ml
6 | B6 | no binding | no binding | ≥ 25 µg/ml | ≥ 25 µg/ml
7 | B7 | no binding | no binding | 0.02 µg/ml | 0.31 µg/ml
8 | B8 | no binding | no binding | ≥ 25 µg/ml | ≥ 25 µg/ml
9 | B9 | no binding | no binding | 0.2 µg/ml | ≥ 25 µg/ml
10 | B10 | no binding | no binding | ≥ 25 µg/ml | ≥ 25 µg/ml
11 | B11 | no binding | no binding | ≥ 25 µg/ml | ≥ 25 µg/ml
